Changes are numbered by the printed parent chain. In names and notes the source's numbering stands.
T1: GST-NPP-14 (C. elegans, UniProt Q17602 1-1390)
T1 sequence (looked up): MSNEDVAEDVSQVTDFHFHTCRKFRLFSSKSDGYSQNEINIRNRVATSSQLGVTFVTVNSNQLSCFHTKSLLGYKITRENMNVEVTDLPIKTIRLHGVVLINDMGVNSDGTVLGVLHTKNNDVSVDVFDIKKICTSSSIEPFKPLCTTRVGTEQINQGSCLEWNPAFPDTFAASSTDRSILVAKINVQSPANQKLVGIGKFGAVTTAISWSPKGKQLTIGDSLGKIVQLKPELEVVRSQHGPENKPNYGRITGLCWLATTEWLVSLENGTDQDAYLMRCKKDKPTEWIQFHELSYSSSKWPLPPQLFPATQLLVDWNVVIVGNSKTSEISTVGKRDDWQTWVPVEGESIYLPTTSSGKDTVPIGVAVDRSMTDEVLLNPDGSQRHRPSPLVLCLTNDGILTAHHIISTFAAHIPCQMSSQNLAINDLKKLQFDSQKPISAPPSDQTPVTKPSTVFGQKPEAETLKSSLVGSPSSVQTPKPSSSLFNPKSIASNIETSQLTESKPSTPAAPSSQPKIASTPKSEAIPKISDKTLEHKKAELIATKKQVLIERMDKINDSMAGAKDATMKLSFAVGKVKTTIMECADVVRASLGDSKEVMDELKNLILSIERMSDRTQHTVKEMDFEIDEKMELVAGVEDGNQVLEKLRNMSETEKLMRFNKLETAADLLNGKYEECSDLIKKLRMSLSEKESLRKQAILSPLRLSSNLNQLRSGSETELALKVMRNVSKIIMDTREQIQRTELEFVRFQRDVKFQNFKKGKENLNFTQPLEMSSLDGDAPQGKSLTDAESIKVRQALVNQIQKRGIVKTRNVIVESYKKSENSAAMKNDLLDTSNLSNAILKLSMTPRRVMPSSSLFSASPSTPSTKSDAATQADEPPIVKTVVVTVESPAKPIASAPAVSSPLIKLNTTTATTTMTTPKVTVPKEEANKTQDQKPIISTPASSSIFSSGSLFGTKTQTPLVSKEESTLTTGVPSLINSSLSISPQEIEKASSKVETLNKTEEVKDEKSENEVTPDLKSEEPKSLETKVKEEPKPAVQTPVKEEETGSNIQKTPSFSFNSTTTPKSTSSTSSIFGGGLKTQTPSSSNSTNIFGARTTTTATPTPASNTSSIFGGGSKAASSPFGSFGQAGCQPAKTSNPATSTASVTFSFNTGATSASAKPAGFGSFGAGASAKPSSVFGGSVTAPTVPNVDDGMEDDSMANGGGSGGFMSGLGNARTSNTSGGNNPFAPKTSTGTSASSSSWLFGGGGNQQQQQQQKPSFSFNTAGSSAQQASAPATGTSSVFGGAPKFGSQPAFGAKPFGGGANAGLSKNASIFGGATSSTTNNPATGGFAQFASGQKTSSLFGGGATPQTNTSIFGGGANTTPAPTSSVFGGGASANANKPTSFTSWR

B1: CED-3(1-220)-His6 (wild-type) (domain or fragment, C. elegans, UniProt P42573 1-220, looked up)
chain: MMRQDRRSLLERNIMMFSSHLKVDEILEVLIAKQVLNSDNGDMINSCGTVREKRREIVKAVQRRGDVAFDAFYDALRSTGHEGLAEVLEPLARSVDSNAVEFECPMSPASHRRSRALSPAGYTSPTRVHRDSVSSVSSFTSYQDIYSRARSRSRSRALHSSDRHNYSSPPVNAFPSQPSSANSSFTGCSSLGYSSSRNRSFSKASGPTQYIFHEEDMNFV
B2: CED-3(1-220)-His6 G65R (domain or fragment, C. elegans, UniProt P42573 1-220, looked up)
chain: B1 chain with G65R
B3: CED-3(1-220)-His6 L30F (domain or fragment, C. elegans, UniProt P42573 1-220, looked up)
chain: B1 chain with L30F
B4: CED-3(1-220)-His6 L27F (domain or fragment, C. elegans, UniProt P42573 1-220, looked up)
chain: B1 chain with L27F

These binders were tested against T1, GST-NPP-14 (assay: pull-down).

binding result | Binder
binds | B1
binds | B2
binds | B3
binds | B4

Source: PMC5484413 (Nature structural & molecular biology, 2016)
